{"source": "patent US20230235013A1", "about": "(MABSOLVE, published 2023)", "binders": {"B1": {"name": "anti-CD52 (alemtuzumab) human IgG1 wild-type reference (antibody)", "heavy": "not shown", "light": "not shown", "notes": "also called 4-1; copies: 2 + 2"}, "B2": {"name": "anti-CD3 (muromonab) human IgG1 wild-type reference (antibody)", "heavy": "not shown", "light": "QIVLTQSPAIMSASPGEKVTMTCSASSSVSYMNWYQQKSGTSPKRWIYDTSKLASGVPAHFRGSGSGTSYSLTISGMEAEDAATYYCQQWSSNPFTFGSGTKLEIKRTVAAPSVFIFPPSDEQLKSGTASVVCLLNNFYPREAKVQWKVDNALQSGNSQESVTEQDSKDSTYSLSSTLTLSKADYEKHKVYACEVTHQGLSSPVTKSFNRGEC", "notes": "also called 3-1; copies: 2 + 2"}, "B3": {"name": "anti-CD3 (muromonab) human IgG1 L234T/L235Q/G236R (antibody)", "heavy": "not shown", "light": "B2 light", "notes": "EU numbering; also called 3-60; copies: 2 + 2"}, "B4": {"name": "anti-CD3 (muromonab) human IgG1 L234A/L235A (LALA) (antibody)", "heavy": "not shown", "light": "B2 light", "notes": "EU numbering; also called 3-65; copies: 2 + 2"}, "B5": {"name": "anti-CD3 (muromonab) human IgG1 N297Q (aglycosyl) (antibody)", "heavy": "not shown", "light": "B2 light", "notes": "EU numbering; also called 3-67; copies: 2 + 2"}, "B6": {"name": "anti-CD3 (muromonab) human IgG1 L234T/L235T/G236R (antibody)", "heavy": "not shown", "light": "B2 light", "notes": "EU numbering; also called 3-63; copies: 2 + 2"}, "B7": {"name": "anti-CD3 (muromonab) human IgG1 L234A/L235A/P329G (LALAPG reference) (antibody)", "heavy": "not shown", "light": "B2 light", "notes": "EU numbering; also called 3-66; copies: 2 + 2"}, "B8": {"name": "anti-CD3 (muromonab) human IgG1 L234S/L235T/G236R (antibody)", "heavy": "not shown", "light": "B2 light", "notes": "EU numbering; also called 3-52; copies: 2 + 2"}, "B9": {"name": "anti-CD3 (muromonab) human IgG1 L234S/L235V/G236R (antibody)", "heavy": "not shown", "light": "B2 light", "notes": "EU numbering; also called 3-53; copies: 2 + 2"}, "B10": {"name": "anti-CD3 (muromonab) human IgG1 L234G/L235S/G236R (antibody)", "heavy": "not shown", "light": "B2 light", "notes": "EU numbering; also called 3-19; copies: 2 + 2"}, "B11": {"name": "anti-CD20 rabbit IgG L234Q/L235S/G236R (antibody)", "heavy": "QVQLQQPGAELVKPGASVKMSCKASGYTFTSYNMHWVKQTPGRGLEWIGAIYPGNGDTSYNQKFKGKATLTADKSSSTAYMQLSSLTSEDSAVYYCARSTYYGGDWYFNVWGAGTTVTVSSGQPKAPSVFPLAPCCGDTPSSTVTLGCLVKGYLPEPVTVTWNSGTLTNGVRTFPSVRQSSGLYSLSSVVSVTSSSQPVTCNVAHPATNTKVDKTVAPSTCSKPTCPPPEQSRGPSVFIFPPKPKDTLMISRTPEVTCVVVDVSEDDPEVQFTWYINNEQVRTARPPLREQQFNSTIRVVSTLPIAHEDWLRGKEFKCKVHNKALPAPIEKTISKARGQPLEPKVYTMGPPREELSSRSVSLTCMINGFYPSDISVEWEKNGKAEDNYKTTPAVLDSDGSYFLYSKLSVPTSEWQRGDVFTCSVMHEALHNHYTQKSISRSPGK", "light": "QIVLSQSPAILSASPGEKVTMTCRASSSVSYIHWFQQKPGSSPKPWIYATSNLASGVPVRFSGSGSGTSYSLTISRVEAEDAATYYCQQWTSNPPTFGGGTKLEIKRDPVAPSVLLFPPSKEELTTGTATIVCVANKFYPSDITVTWKVDGTTQQSGIENSKTPQSPEDNTYSLSSTLSLTSAQYNSHSVYTCEVVQGSASPIVQSFNRGDC", "notes": "also called 23.77"}, "B12": {"name": "anti-CD20 human IgG1 L234G/L235S/G236R (antibody)", "heavy": "QVQLQQPGAELVKPGASVKMSCKASGYTFTSYNMHWVKQTPGRGLEWIGAIYPGNGDTSYNQKFKGKATLTADKSSSTAYMQLSSLTSEDSAVYYCARSTYYGGDWYFNVWGAGTTVTVSSASTKGPSVFPLAPSSKSTSGGTAALGCLVKDYFPEPVTVSWNSGALTSGVHTFPAVLQSSGLYSLSSVVTVPSSSLGTQTYICNVNHKPSNTKVDKKVEPKSCDKTHTCPPCPAPEGSRGPSVFLFPPKPKDTLMISRTPEVTCVVVDVSHEDPEVKFNWYVDGVEVHNAKTKPREEQYNSTYRVVSVLTVLHQDWLNGKEYKCKVSNKALPAPIEKTISKAKGQPREPQVYTLPPSRDELTKNQVSLTCLVKGFYPSDIAVEWESNGQPENNYKTTPPVLDSDGSFFLYSKLTVDKSRWQQGNVFSCSVMHEALHNHYTQKSLSLSPGK", "light": "QIVLSQSPAILSASPGEKVTMTCRASSSVSYIHWFQQKPGSSPKPWIYATSNLASGVPVRFSGSGSGTSYSLTISRVEAEDAATYYCQQWTSNPPTFGGGTKLEIKRTVAAPSVFIFPPSDEQLKSGTASVVCLLNNFYPREAKVQWKVDNALQSGNSQESVTEQDSKDSTYSLSSTLTLSKADYEKHKVYACEVTHQGLSSPVTKSFNRGEC", "notes": "also called 1-59; 2-19; copies: 2 + 2"}, "B13": {"name": "anti-CD20 human IgG1 L234T/L235T/G236R (antibody)", "heavy": "B12 heavy with G238T, S239T", "light": "B12 light", "notes": "also called 1-165; 2-63; copies: 2 + 2"}, "B14": {"name": "anti-CD20 human IgG4 L234Q/L235S/G236R (with S228P) (antibody)", "heavy": "QVQLQQPGAELVKPGASVKMSCKASGYTFTSYNMHWVKQTPGRGLEWIGAIYPGNGDTSYNQKFKGKATLTADKSSSTAYMQLSSLTSEDSAVYYCARSTYYGGDWYFNVWGAGTTVTVSSASTKGPSVFPLAPCSRSTSESTAALGCLVKDYFPEPVTVSWNSGALTSGVHTFPAVLQSSGLYSLSSVVTVPSSSLGTKTYTCNVDHKPSNTKVDKRVESKYGPPCPPCPAPEQSRGPSVFLFPPKPKDTLMISRTPEVTCVVVDVSQEDPEVQFNWYVDGVEVHNAKTKPREEQFNSTYRVVSVLTVLHQDWLNGKEYKCKVSNKGLPSSIEKTISKAKGQPREPQVYTLPPSQEEMTKNQVSLTCLVKGFYPSDIAVEWESNGQPENNYKTTPPVLDSDGSFFLYSRLTVDKSRWQEGNVFSCSVMHEALHNHYTQKSLSLSLGK", "light": "B12 light", "notes": "copies: 2 + 2"}, "B15": {"name": "anti-CD20 human IgG1 L234S/L235T/G236R (antibody)", "heavy": "B12 heavy with G238S, S239T", "light": "B12 light", "notes": "also called 1-150; 2-52; copies: 2 + 2"}, "B16": {"name": "anti-CD20 human IgG1 L234T/L235Q/G236R (antibody)", "heavy": "B12 heavy with G238T, S239Q", "light": "B12 light", "notes": "also called 2-60; copies: 2 + 2"}, "B17": {"name": "anti-CD20 mouse IgG2a L234Q/L235S/G236R (antibody)", "heavy": "QVQLQQPGAELVKPGASVKMSCKASGYTFTSYNMHWVKQTPGRGLEWIGAIYPGNGDTSYNQKFKGKATLTADKSSSTAYMQLSSLTSEDSAVYYCARSTYYGGDWYFNVWGAGTTVTVSSAKTTAPSVYPLAPVCGDTTGSSVTLGCLVKGYFPEPVTLTWNSGSLSSGVHTFPAVLQSDLYTLSSSVTVTSSTWPSQSITCNVAHPASSTKVDKKIEPRGPTIKPCPPCKCPAPNQSRGPSVFIFPPKIKDVLMISLSPIVTCVVVDVSEDDPDVQISWFVNNVEVHTAQTQTHREDYNSTLRVVSALPIQHQDWMSGKEFKCKVNNKDLPAPIERTISKPKGSVRAPQVYVLPPPEEEMTKKQVTLTCMVTDFMPEDIYVEWTNNGKTELNYKNTEPVLDSDGSYFMYSKLRVEKKNWVERNSYSCSVVHEGLHNHHTTKSFSRTPGK", "light": "QIVLSQSPAILSASPGEKVTMTCRASSSVSYIHWFQQKPGSSPKPWIYATSNLASGVPVRFSGSGSGTSYSLTISRVEAEDAATYYCQQWTSNPPTFGGGTKLEIKRADAAPTVSIFPPSSEQLTSGGASVVCFLNNFYPKDINVKWKIDGSERQNGVLNSWTDQDSKDSTYSMSSTLTLTKDEYERHNSYTCEATHKTSTSPIVKSFNRNEC", "notes": "copies: 2 + 2"}}, "note": "Changes are numbered by the printed parent chain. Numbers in names are those of the source.", "data": [{"biological_target": "T1, Human C1q (Sigma Cat. No. 20476), HRP-labelled (human, UniProt P02745 23-245; P02746 28-253; P02747 29-245)", "T1 construct": "Coupled to horse-radish peroxidase with Lightning-Link kit; also called HRP-labelled C1q", "test": "ELISA, antibody coated, HRP-C1q; Expt 1, buffer alone 0.053", "values": [{"binder": "B1", "Mean Absorbance": "1.42 absorbance (450 nm)"}, {"binder": "B2", "Mean Absorbance": "0.769 absorbance (450 nm)"}, {"binder": "B3", "Mean Absorbance": "0.047 absorbance (450 nm)"}, {"binder": "B4", "Mean Absorbance": "0.053 absorbance (450 nm)"}, {"binder": "B5", "Mean Absorbance": "0.052 absorbance (450 nm)"}, {"binder": "B6", "Mean Absorbance": "0.047 absorbance (450 nm)"}, {"binder": "B7", "Mean Absorbance": "0.052 absorbance (450 nm)"}, {"binder": "B8", "Mean Absorbance": "0.048 absorbance (450 nm)"}, {"binder": "B9", "Mean Absorbance": "0.047 absorbance (450 nm)"}, {"binder": "B10", "Mean Absorbance": "0.052 absorbance (450 nm)"}]}, {"biological_target": "T1, Human C1q (Sigma Cat. No. 20476), …", "test": "ELISA, antibody coated, HRP-C1q; Expt 2, buffer alone 0.051", "values": [{"binder": "B1", "Mean Absorbance": "0.649 absorbance (450 nm)"}, {"binder": "B2", "Mean Absorbance": "0.432 absorbance (450 nm)"}, {"binder": "B3", "Mean Absorbance": "0.045 absorbance (450 nm)"}, {"binder": "B4", "Mean Absorbance": "0.051 absorbance (450 nm)"}, {"binder": "B5", "Mean Absorbance": "0.051 absorbance (450 nm)"}, {"binder": "B6", "Mean Absorbance": "0.048 absorbance (450 nm)"}, {"binder": "B7", "Mean Absorbance": "0.044 absorbance (450 nm)"}, {"binder": "B8", "Mean Absorbance": "0.046 absorbance (450 nm)"}, {"binder": "B9", "Mean Absorbance": "0.042 absorbance (450 nm)"}, {"binder": "B10", "Mean Absorbance": "0.049 absorbance (450 nm)"}]}, {"biological_target": "T2, human FcγRIIIB (NA2 allotype, Sino Biological Cat. No. 11046-H08H) (human, UniProt O75015 17-200)", "T2 construct": "bought; also called human FcγRIIIb NA2 allele", "test": "SPR, captured His-receptor", "values": [{"binder": "B11", "binding result": "no binding (tested: 100 µg/mL)"}, {"binder": "B12", "binding result": "no binding (tested: 100 µg/mL)"}, {"binder": "B13", "binding result": "no binding (tested: 100 µg/mL)"}, {"binder": "B14", "binding result": "no binding (tested: 100 µg/mL)"}, {"binder": "B15", "binding result": "no binding (tested: 100 µg/mL)"}, {"binder": "B16", "binding result": "no binding (tested: 100 µg/mL)"}, {"binder": "B17", "binding result": "no binding (tested: 100 µg/mL)"}]}, {"biological_target": "T3, human FcγRIIA (R131, Sino Biological Cat. No. 10374-H08H) (human, UniProt P12318 34-218)", "T3 construct": "bought; also called human FcγRIIa R131 allele; FcγRII allele R131", "T3 sequence (looked up)": "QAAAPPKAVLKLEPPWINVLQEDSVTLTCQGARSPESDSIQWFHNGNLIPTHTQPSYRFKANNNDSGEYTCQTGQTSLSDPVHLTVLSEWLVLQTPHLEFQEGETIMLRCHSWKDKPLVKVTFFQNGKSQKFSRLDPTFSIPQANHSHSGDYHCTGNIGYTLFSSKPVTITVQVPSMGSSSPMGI", "test": "SPR, captured His-receptor", "values": [{"binder": "B11", "binding result": "no binding (tested: 100 µg/mL)"}, {"binder": "B12", "binding result": "no binding (tested: 100 µg/mL)"}, {"binder": "B13", "binding result": "no binding (tested: 100 µg/mL)"}, {"binder": "B14", "binding result": "no binding (tested: 100 µg/mL)"}, {"binder": "B15", "binding result": "no binding (tested: 100 µg/mL)"}, {"binder": "B16", "binding result": "no binding (tested: 100 µg/mL)"}, {"binder": "B17", "binding result": "no binding (tested: 100 µg/mL)"}]}, {"biological_target": "T4, Histidine-tagged recombinant human FcγRI (CD64) (human, UniProt P12314 16-288)", "T4 construct": "bought; also called Sino Biological Cat. No. 12056-H08H", "test": "SPR, captured His-receptor", "values": [{"binder": "B11", "binding result": "no binding (tested: 100 µg/mL)"}, {"binder": "B12", "binding result": "no binding (tested: 100 µg/mL)"}, {"binder": "B13", "binding result": "no binding (tested: 100 µg/mL)"}, {"binder": "B14", "binding result": "no binding (tested: 100 µg/mL)"}, {"binder": "B15", "binding result": "no binding (tested: 100 µg/mL)"}, {"binder": "B16", "binding result": "no binding (tested: 100 µg/mL)"}, {"binder": "B17", "binding result": "no binding (tested: 100 µg/mL)"}]}, {"biological_target": "T4, Histidine-tagged recombinant human …", "test": "SPR, culture supernatant, captured His-FcγRI;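 note: biacore T200 SPR at 25 °C, anti-His capture, supernatants of HEK293 cells expressing IgG1 Fc variants injected 1 min, reference-subtracted response read 55 s after injection start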", "units": {"Mean binding response": "RU"}, "values": [{"binder": "B12", "Mean binding response": 21.8}, {"binder": "B15", "Mean binding response": 16.2}, {"binder": "B16", "Mean binding response": 17}]}]}
